The values that follow come from PMC4029521.

The data set relates to T1, AirR (Staphylococcus aureus NCTC8325), ORF:f68b8ed8.
T1 sequence: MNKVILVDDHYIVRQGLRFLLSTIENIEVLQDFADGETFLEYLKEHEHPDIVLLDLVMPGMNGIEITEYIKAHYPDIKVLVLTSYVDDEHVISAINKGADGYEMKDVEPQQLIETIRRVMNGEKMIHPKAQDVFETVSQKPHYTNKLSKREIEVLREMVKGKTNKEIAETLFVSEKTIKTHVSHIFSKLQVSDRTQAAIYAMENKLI
The data set can be described thus: EMSA.

As to “GAATCGCGAACATGGACGAACGATTAGTTGTTAATTTTGAAAATTTATAAAAGGTTAAACGAATGCAGTGAGAGATGTCATTTTAATATCAATGTATGGCTATTTTGTAATGACAATGTAATGAGTTTAGTAAAACATTTCGGGAATATTAAATAGTTGGAAAATGAGAATTAAATCCTTTACTCAGTTGTCTAATTCTTTTAGTATGTGCAGTACAGTTTAATTGAAAACTAACTTTAACTTTAATGGAGGATGTTTTATACATGAAAAAATTAACAGCAGCAGCGATTGC (double strand) [lytM promoter (p-lytM)]”, the binding result was “binds”.

For “AGCTACACGTAATTTCGCGCTTCGTGCTCTGTTATTGTCATCTAAATCTTCTTCTGTAGCGGTAATCGGTTTACGATTAACACGCTTTAACTTAGGTGTATATGCTTCTGGTATAACTGGTAATCCTCTTGGTACCTCTGGACCTTTTTCATATTCTTGGAACACCTGTTTACATAAACGATCTTCTAAAGAATGGAAAGTGATTACCGAAATCCTGCCATCTACTTTCACTAATTCAATCGCTTGTTCTATTGAATC (double strand) [pbp1 promoter (p-pbp1)]”, the binding entry is reported as “binds”.
